Measurements published in publication PMC9482650, “Quantitative fragmentomics allow affinity mapping of interactomes” (Nature Communications, 2022).

What was measured:
Assay in all cases: holdup assay
Design in all cases: key: below the threshold = too weak to quantify, mostly under pKd 3.1 to 4
CASK, O14936 = biological target: CASK, O14936
DFNB31_1, Q9P202 = biological target: T1, DFNB31_1, Q9P202
T1 sequence (Q9P202 135-233, limits assumed, looked up): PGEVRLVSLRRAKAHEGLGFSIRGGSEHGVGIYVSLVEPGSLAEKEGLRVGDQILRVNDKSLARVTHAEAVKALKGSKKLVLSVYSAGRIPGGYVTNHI

DFNB31_2, Q9P202 = biological target: T2, DFNB31_2, Q9P202
T2 sequence (Q9P202 274-371, limits assumed, looked up): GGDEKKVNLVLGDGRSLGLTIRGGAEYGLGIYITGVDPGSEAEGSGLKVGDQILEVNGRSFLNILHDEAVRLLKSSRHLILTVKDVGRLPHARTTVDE

DLG2_3, Q15700 = biological target: DLG2_3, Q15700
DLG3_1, Q92796 = biological target: T3, DLG3_1, Q92796
T3 sequence (Q92796 125-227, limits assumed, looked up): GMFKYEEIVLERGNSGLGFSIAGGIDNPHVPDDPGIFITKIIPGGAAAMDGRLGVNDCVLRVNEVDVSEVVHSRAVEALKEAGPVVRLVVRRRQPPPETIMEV

FRMPD1, Q5SYB0 = biological target: T4, FRMPD1, Q5SYB0
T4 sequence (Q5SYB0 52-145, limits assumed, looked up): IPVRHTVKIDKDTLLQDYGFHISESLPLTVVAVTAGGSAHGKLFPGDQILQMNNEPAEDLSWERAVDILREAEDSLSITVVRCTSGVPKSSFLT

FRMPD2_3, Q68DX3 = biological target: FRMPD2_3, Q68DX3
GIPC2, Q8TF65 = biological target: GIPC2, Q8TF65
GRASP, Q7Z6J2 = biological target: GRASP, Q7Z6J2
GRID2IP_1, A4D2P6 = biological target: GRID2IP_1, A4D2P6
GRIP2_3, Q9C0E4 = biological target: GRIP2_3, Q9C0E4
IL16_3, Q14005 = biological target: IL16_3, Q14005
Inadl_1, Q8NI35 = biological target: Inadl_1, Q8NI35
Inadl_10, Q8NI35 = biological target: Inadl_10, Q8NI35
Inadl_5, Q8NI35 = biological target: Inadl_5, Q8NI35
LIN7A, O14910 = biological target: T5, LIN7A, O14910
T5 sequence (O14910 103-200, limits assumed, looked up): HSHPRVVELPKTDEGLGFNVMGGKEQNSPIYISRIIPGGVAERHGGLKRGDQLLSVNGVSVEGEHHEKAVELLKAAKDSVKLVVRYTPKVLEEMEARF

MAGI1_1, Q96QZ7 = biological target: MAGI1_1, Q96QZ7
MAGI2_2, Q86UL8 = biological target: MAGI2_2, Q86UL8
MAGI2_3, Q86UL8 = biological target: MAGI2_3, Q86UL8
MPDZ_10, O75970 = biological target: T6, MPDZ_10, O75970
T6 sequence (O75970 1624-1722, limits assumed, looked up): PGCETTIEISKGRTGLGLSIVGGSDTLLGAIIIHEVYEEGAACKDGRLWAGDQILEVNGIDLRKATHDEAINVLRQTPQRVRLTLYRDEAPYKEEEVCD

MPDZ_5, O75970 = biological target: T7, MPDZ_5, O75970
T7 sequence (O75970 695-796, limits assumed, looked up): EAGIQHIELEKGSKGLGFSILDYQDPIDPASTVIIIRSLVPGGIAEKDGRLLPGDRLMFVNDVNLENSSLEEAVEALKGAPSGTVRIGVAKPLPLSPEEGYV

NHERF3_1, Q5T2W1 = biological target: T8, NHERF3_1, Q5T2W1
T8 sequence (Q5T2W1 4-100, limits assumed, looked up): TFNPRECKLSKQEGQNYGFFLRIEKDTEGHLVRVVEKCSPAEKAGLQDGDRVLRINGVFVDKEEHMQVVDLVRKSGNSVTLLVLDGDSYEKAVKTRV

PARD3B_1, Q8TEW8 = biological target: T9, PARD3B_1, Q8TEW8
T9 sequence (Q8TEW8 196-299, limits assumed, looked up): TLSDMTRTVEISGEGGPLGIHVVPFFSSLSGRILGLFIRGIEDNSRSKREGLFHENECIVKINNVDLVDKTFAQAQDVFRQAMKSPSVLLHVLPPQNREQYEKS

PDLIM1, O00151 = biological target: PDLIM1, O00151
RADIL, Q96JH8 = biological target: T10, RADIL, Q96JH8
T10 sequence (Q96JH8 971-1071, limits assumed, looked up): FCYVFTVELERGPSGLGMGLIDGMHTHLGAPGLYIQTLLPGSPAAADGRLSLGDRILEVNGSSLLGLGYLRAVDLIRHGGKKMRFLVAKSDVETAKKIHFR

SCRIB_1, Q14160 = biological target: SCRIB_1, Q14160
SCRIB_2, Q14160 = biological target: SCRIB_2, Q14160
TJP2_1, Q9UDY2 = biological target: TJP2_1, Q9UDY2
[1] = plain residues with an end cap or a label only (N-terminal biotin on a linker: ttds)
[2] = plain residues with an end cap or a label only (N-terminal biotin on a linker: ahx)

Sequence of Inadl_10, Q8NI35 (Q8NI35 1673-1763): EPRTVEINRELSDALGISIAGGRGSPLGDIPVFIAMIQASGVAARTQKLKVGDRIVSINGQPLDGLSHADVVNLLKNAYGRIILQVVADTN
Sequence of MAGI2_3, Q86UL8 (Q86UL8 600-682): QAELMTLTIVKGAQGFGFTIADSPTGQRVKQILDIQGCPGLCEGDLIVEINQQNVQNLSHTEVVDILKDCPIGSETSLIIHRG
Sequence of CASK, O14936 (O14936 487-570): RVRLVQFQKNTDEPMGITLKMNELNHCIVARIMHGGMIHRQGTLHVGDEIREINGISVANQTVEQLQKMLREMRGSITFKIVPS
Sequence of MAGI2_2, Q86UL8 (Q86UL8 410-522): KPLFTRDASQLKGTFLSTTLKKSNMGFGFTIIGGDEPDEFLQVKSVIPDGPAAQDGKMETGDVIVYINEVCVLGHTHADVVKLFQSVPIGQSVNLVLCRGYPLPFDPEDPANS
Sequence of GIPC2, Q8TF65 (Q8TF65 112-203): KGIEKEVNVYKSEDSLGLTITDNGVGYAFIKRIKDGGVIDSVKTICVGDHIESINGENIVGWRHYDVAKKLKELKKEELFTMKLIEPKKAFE
Sequence of SCRIB_1, Q14160 (Q14160 718-814): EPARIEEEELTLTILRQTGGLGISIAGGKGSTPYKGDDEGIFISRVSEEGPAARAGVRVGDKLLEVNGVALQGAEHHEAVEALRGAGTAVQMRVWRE
Sequence of Inadl_5, Q8NI35 (Q8NI35 673-780): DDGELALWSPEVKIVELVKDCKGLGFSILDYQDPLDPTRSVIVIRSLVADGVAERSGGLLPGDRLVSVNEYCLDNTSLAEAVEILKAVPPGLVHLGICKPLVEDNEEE
Sequence of MAGI1_1, Q96QZ7 (Q96QZ7 1-106): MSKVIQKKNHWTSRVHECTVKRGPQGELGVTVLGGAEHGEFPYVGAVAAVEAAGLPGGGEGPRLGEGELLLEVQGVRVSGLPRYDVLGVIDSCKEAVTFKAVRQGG
Sequence of IL16_3, Q14005 (Q14005 1107-1207): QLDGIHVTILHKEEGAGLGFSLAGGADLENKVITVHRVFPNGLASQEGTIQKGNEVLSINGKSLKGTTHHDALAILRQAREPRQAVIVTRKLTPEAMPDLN
Sequence of Inadl_1, Q8NI35 (Q8NI35 113-229): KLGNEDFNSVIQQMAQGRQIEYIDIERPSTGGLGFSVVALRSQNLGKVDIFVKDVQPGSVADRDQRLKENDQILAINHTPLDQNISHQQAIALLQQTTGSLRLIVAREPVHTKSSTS
Sequence of SCRIB_2, Q14160 (Q14160 857-960): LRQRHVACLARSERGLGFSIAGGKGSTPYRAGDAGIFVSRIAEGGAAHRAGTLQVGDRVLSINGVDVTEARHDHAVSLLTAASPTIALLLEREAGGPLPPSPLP
Sequence of PDLIM1, O00151 (O00151 1-87): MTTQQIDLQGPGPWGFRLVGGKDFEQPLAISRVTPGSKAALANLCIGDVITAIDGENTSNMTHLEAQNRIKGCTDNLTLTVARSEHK
Sequence of TJP2_1, Q9UDY2 (Q9UDY2 24-128): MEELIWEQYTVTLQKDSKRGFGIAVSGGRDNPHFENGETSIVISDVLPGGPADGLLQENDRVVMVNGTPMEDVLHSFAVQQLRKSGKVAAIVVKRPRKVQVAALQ
Sequence of FRMPD2_3, Q68DX3 (Q68DX3 1073-1166): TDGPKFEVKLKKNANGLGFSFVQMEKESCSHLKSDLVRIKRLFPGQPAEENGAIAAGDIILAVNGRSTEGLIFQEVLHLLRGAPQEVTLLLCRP
Sequence of GRID2IP_1, A4D2P6 (A4D2P6 1-87): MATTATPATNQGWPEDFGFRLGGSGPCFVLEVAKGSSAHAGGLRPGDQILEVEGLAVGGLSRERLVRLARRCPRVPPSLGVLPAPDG
Sequence of GRIP2_3, Q9C0E4 (Q9C0E4 238-339): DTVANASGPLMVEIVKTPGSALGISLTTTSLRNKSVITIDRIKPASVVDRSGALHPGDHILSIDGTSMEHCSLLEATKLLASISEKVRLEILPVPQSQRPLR
Sequence of GRASP, Q7Z6J2 (Q7Z6J2 96-193): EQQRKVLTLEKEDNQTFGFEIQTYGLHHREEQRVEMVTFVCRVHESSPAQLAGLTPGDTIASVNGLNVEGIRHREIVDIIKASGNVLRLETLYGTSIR

B1: HPV35-E6, P27228 (peptide)
chain: SKPTRRETEV
- pKd (CASK, O14936; [1]): below the threshold
- pKd (DFNB31_1, Q9P202; [1]): below the threshold
- pKd (DFNB31_2, Q9P202; [1]): below the threshold
- pKd (DLG2_3, Q15700; [1]): 5.31
- pKd (DLG3_1, Q92796; [1]): 4.45
- pKd (FRMPD1, Q5SYB0; [1]): below the threshold
- pKd (FRMPD2_3, Q68DX3; [1]): below the threshold
- pKd (GIPC2, Q8TF65; [1]): below the threshold
- pKd (GRASP, Q7Z6J2; [1]): below the threshold
- pKd (GRID2IP_1, A4D2P6; [1]): below the threshold
- pKd (GRIP2_3, Q9C0E4; [1]): below the threshold
- pKd (IL16_3, Q14005; [1]): below the threshold
- pKd (Inadl_1, Q8NI35; [1]): below the threshold
- pKd (Inadl_10, Q8NI35; [1]): below the threshold
- pKd (Inadl_5, Q8NI35; [1]): below the threshold
- pKd (LIN7A, O14910; [1]): below the threshold
- pKd (MAGI1_1, Q96QZ7; [1]): below the threshold
- pKd (MAGI2_2, Q86UL8; [1]): 4.93
- pKd (MAGI2_3, Q86UL8; [1]): below the threshold
- pKd (MPDZ_10, O75970; [1]): below the threshold
- pKd (MPDZ_5, O75970; [1]): below the threshold
- pKd (NHERF3_1, Q5T2W1; [1]): 4.04
- pKd (PARD3B_1, Q8TEW8; [1]): below the threshold
- pKd (PDLIM1, O00151; [1]): below the threshold
- pKd (RADIL, Q96JH8; [1]): below the threshold
- pKd (SCRIB_1, Q14160; [1]): 4.56
- pKd (SCRIB_2, Q14160; [1]): 4.7
- pKd (TJP2_1, Q9UDY2; [1]): below the threshold

B2: SHROOM4, Q9ULL8 (peptide)
chain: ESLLLGPSNF
- pKd (CASK, O14936; [2]): below the threshold
- pKd (DFNB31_1, Q9P202; [2]): below the threshold
- pKd (DFNB31_2, Q9P202; [2]): below the threshold
- pKd (DLG2_3, Q15700; [2]): below the threshold
- pKd (DLG3_1, Q92796; [2]): below the threshold
- pKd (FRMPD1, Q5SYB0; [2]): below the threshold
- pKd (FRMPD2_3, Q68DX3; [2]): below the threshold
- pKd (GIPC2, Q8TF65; [2]): below the threshold
- pKd (GRASP, Q7Z6J2; [2]): 4.36
- pKd (GRID2IP_1, A4D2P6; [2]): below the threshold
- pKd (GRIP2_3, Q9C0E4; [2]): below the threshold
- pKd (IL16_3, Q14005; [2]): below the threshold
- pKd (Inadl_1, Q8NI35; [2]): below the threshold
- pKd (Inadl_10, Q8NI35; [2]): below the threshold
- pKd (Inadl_5, Q8NI35; [2]): below the threshold
- pKd (LIN7A, O14910; [2]): below the threshold
- pKd (MAGI1_1, Q96QZ7; [2]): below the threshold
- pKd (MAGI2_2, Q86UL8; [2]): below the threshold
- pKd (MAGI2_3, Q86UL8; [2]): below the threshold
- pKd (MPDZ_10, O75970; [2]): below the threshold
- pKd (MPDZ_5, O75970; [2]): below the threshold
- pKd (NHERF3_1, Q5T2W1; [2]): below the threshold
- pKd (PARD3B_1, Q8TEW8; [2]): below the threshold
- pKd (PDLIM1, O00151; [2]): below the threshold
- pKd (RADIL, Q96JH8; [2]): below the threshold
- pKd (SCRIB_1, Q14160; [2]): below the threshold
- pKd (SCRIB_2, Q14160; [2]): below the threshold
- pKd (TJP2_1, Q9UDY2; [2]): below the threshold

B3: KCTD3, Q9Y597 (peptide)
chain: SDSSGQEYSL
- pKd (CASK, O14936; [2]): below the threshold
- pKd (DFNB31_1, Q9P202; [2]): below the threshold
- pKd (DFNB31_2, Q9P202; [2]): below the threshold
- pKd (DLG2_3, Q15700; [2]): below the threshold
- pKd (DLG3_1, Q92796; [2]): below the threshold
- pKd (FRMPD1, Q5SYB0; [2]): below the threshold
- pKd (FRMPD2_3, Q68DX3; [2]): below the threshold
- pKd (GIPC2, Q8TF65; [2]): 3.64
- pKd (GRASP, Q7Z6J2; [2]): below the threshold
- pKd (GRID2IP_1, A4D2P6; [2]): below the threshold
- pKd (GRIP2_3, Q9C0E4; [2]): below the threshold
- pKd (IL16_3, Q14005; [2]): below the threshold
- pKd (Inadl_1, Q8NI35; [2]): below the threshold
- pKd (Inadl_10, Q8NI35; [2]): below the threshold
- pKd (Inadl_5, Q8NI35; [2]): below the threshold
- pKd (LIN7A, O14910; [2]): below the threshold
- pKd (MAGI1_1, Q96QZ7; [2]): below the threshold
- pKd (MAGI2_2, Q86UL8; [2]): below the threshold
- pKd (MAGI2_3, Q86UL8; [2]): below the threshold
- pKd (MPDZ_10, O75970; [2]): 3.56
- pKd (MPDZ_5, O75970; [2]): below the threshold
- pKd (NHERF3_1, Q5T2W1; [2]): 3.8
- pKd (PARD3B_1, Q8TEW8; [2]): below the threshold
- pKd (PDLIM1, O00151; [2]): below the threshold
- pKd (RADIL, Q96JH8; [2]): below the threshold
- pKd (SCRIB_1, Q14160; [2]): below the threshold
- pKd (SCRIB_2, Q14160; [2]): below the threshold
- pKd (TJP2_1, Q9UDY2; [2]): below the threshold

B4: HPV59-E6, Q81964 (peptide)
chain: QRQARSETLV
- pKd (CASK, O14936; [1]): below the threshold
- pKd (DFNB31_1, Q9P202; [1]): below the threshold
- pKd (DFNB31_2, Q9P202; [1]): below the threshold
- pKd (DLG2_3, Q15700; [1]): 4.84
- pKd (DLG3_1, Q92796; [1]): 4.58
- pKd (FRMPD1, Q5SYB0; [1]): below the threshold
- pKd (FRMPD2_3, Q68DX3; [1]): below the threshold
- pKd (GIPC2, Q8TF65; [1]): below the threshold
- pKd (GRASP, Q7Z6J2; [1]): below the threshold
- pKd (GRID2IP_1, A4D2P6; [1]): below the threshold
- pKd (GRIP2_3, Q9C0E4; [1]): below the threshold
- pKd (IL16_3, Q14005; [1]): below the threshold
- pKd (Inadl_1, Q8NI35; [1]): below the threshold
- pKd (Inadl_10, Q8NI35; [1]): below the threshold
- pKd (Inadl_5, Q8NI35; [1]): 3.9
- pKd (LIN7A, O14910; [1]): below the threshold
- pKd (MAGI1_1, Q96QZ7; [1]): below the threshold
- pKd (MAGI2_2, Q86UL8; [1]): 6.07
- pKd (MAGI2_3, Q86UL8; [1]): 4.73
- pKd (MPDZ_10, O75970; [1]): below the threshold
- pKd (MPDZ_5, O75970; [1]): 3.81
- pKd (NHERF3_1, Q5T2W1; [1]): 4.82
- pKd (PARD3B_1, Q8TEW8; [1]): below the threshold
- pKd (PDLIM1, O00151; [1]): below the threshold
- pKd (RADIL, Q96JH8; [1]): 4.47
- pKd (SCRIB_1, Q14160; [1]): 3.82
- pKd (SCRIB_2, Q14160; [1]): 4.18
- pKd (TJP2_1, Q9UDY2; [1]): 3.81
